System: T1, C=CCc1cc(OC)c2c(c1)OCO2
T1 construct: full-length, 505 residues, 57 kD, untagged; microsomal fraction of Saccharomyces cerevisiae AH22, vector pGYR-SpeI co-expressing yeast NADPH-P450 reductase
Test: GC-FID product assay, yeast microsomal fraction
Format: biochemical, Perilla frutescens
Conditions: 0.5 mM NADPH, 50 mM HEPES/NaOH pH 7.5, 30 °C, 15 min, myristicin 0.2 to 10 µM, co-expressed yeast NADPH-P450 reductase, product 6-allyl-4-methoxy-1,3-benzodioxol-5-ol
Description: GC-FID product assay, yeast microsomal fraction on Pf-49487 (CYP71D558) | We performed kinetic analyses of the Pf-49487 reaction using myristicin as substrate.

Which Km does the source give for “Pf-49487 (CYP71D558) (Perilla frutescens)” here?
The Km was 9.1 µM.

And the kcat?
The kcat was 0.25 s⁻¹.
